In the supplement of paper PMC10567573:

B1: PSD2 (parent)
chain: PLMGETQERERVLTHFSRRYCQCN

Variants of: B1
Assay: protein stability index of a GFP-peptide fusion (GPS, HEK-293T) (PSI 1-6); higher = more stable
Conditions: c terminus: a fixed tail appended
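Also: lentivirally expressed fusions sorted by FACS into six bins by GFP to DsRed ratio, PSI derived from sequencing read proportions per bin multiplied by bin number.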

Protein stability index of substitutions, site by site:
S17: M 2.51; D 3.37; Y 2.89; V 2.44; T 2.15; P 3.18; K 2.95; L 1.99; C 4.84; R 2.42; F 1.68; H 3.2; A 2.11; Q 2.97; G 3.85; I 1.49; W 1.52; N 3.15
T6: V 2.44; H 3.15; I 2.38; W 2.83; C 4.24; K 2.14; Y 2.33; E 3.05; M 2.52; G 2.84; R 2.95; N 2.21; S 2.18; Q 2.97; P 3.02; F 2.22; A 3.27; D 2.98
E8: D 3.46; K 2.12; Y 1.79; N 2.46; H 1.97; W 1.65; R 2.78; M 1.62; C 2.17; L 1.89; Q 3.54; P 2.27; S 2.39; V 1.71; A 2.03; F 1.67; G 2.35; I 2.69
L13: Q 3.5; K 3.57; W 2.7; C 4.49; P 3.19; R 4.15; F 2.51; M 3.3; I 3.55; A 2.71; S 2.52; T 2.65; G 3.52; N 2.93; E 3.6; H 3.6; D 3.18
Q7: I 1.97; Y 2.82; T 2.69; H 3.23; F 2.73; S 3.11; A 3.21; L 2.61; K 2.4; C 3.6; D 3.72; V 3.27; M 2.22; G 2.42; R 2.26; W 1.44; P 2.77; N 2.9
E10: C 2.92; Y 1.73; I 2.1; K 2.58; F 2.19; T 2.07; W 1.87; H 2.23; A 2.07; L 2.27; R 1.82; N 2.8; D 2.44; M 1.93; S 2.14; Q 2.33; V 2.31; P 2.03
Q22: I 2.09; V 1.69; M 2.1; W 2.49; C 2.11; P 2.71; R 3.98; G 2.29; L 2.39; A 3.55; T 3.08; H 2.62; S 3.04; E 3.96; Y 2.08; N 3.18; D 3.85; K 3.02; F 2.42
V12: I 3.05; H 3.24; M 2.85; R 3.15; K 2.96; T 3.73; E 3.34; S 3.03; A 3.49; Y 3.25; W 3.26; N 2.99; P 2.94; F 3.5; C 4.07; D 2.81; Q 3.6; G 3.1
E5: Y 1.83
N24: K 2.2; G 3.05; H 3.21; I 3.07; L 2.71; A 3.04; F 2.79; E 3.84; C 3.05; M 2.96; D 3.23
C23: V 3.56; D 4.04; G 3.56; A 4.01; Y 2.85; L 2.9; Q 4.39; P 4.09; R 3.6; I 2.99; W 2.67; F 3.18; N 4.07; S 3.87; H 3.44; M 2.92; T 3.87; K 4.92
Y20: P 3.72; I 2.62; M 2.69; D 4.19; L 3; F 2.96; T 3.63; R 3.95; G 3.86; C 3.91; E 4.57; N 3.81; V 4.11; K 3.92; W 2.42; S 3.84; H 2.43
T14: S 3.18; I 2.13; R 2.73; L 2.02; N 2.63; Q 2.56; F 2.63; Y 1.71; H 2.65; G 2.83; P 2.88; A 2.62; V 2.69; M 2.72; D 2.92; E 2.93
H15: C 2.9; D 3.15; T 3.03; Q 1.99; N 3.02; K 3.41; L 2.7; W 1.2; P 2.6; F 1.47; S 3.18; M 2.56; Y 2.44; E 4.15; A 2.62; G 3.07; I 2.32; V 2.31; R 2.74
R11: L 3.11; S 2.53; E 3.98; F 1.85; Q 3.46; A 3.42; H 3.73; W 2.19; K 2.87; T 3.06; P 3.02; M 2.64; V 3.46; I 2.35; N 3.14; C 3.88
R19: V 3.09; D 3.25; Q 3.29; A 2.98; W 2.14; F 2.88; K 3.17; S 3.28; N 3.54; E 3.74; L 2.4; T 3.21; P 3.59; M 2.22; C 3.28; I 2.54; Y 1.98; G 3.71; H 3.24
C21: S 3.53; W 3.17; T 4.43; Q 3.67; I 3.06; H 2.62; G 4.23; F 3.27; K 2.88; D 4.01; A 3.46; L 3.23; V 3.68; E 3.81; N 3.29; P 3.92; M 3.61
R9: V 2.94; D 3.79; Q 2.18; L 2.41; T 2.58; F 2.23; M 2.16; Y 2.14; E 4.05; K 3.21; I 2.07; C 2.68; A 3.5; N 4.17; W 1.46; G 2.98; S 2.49; P 3.29; H 3.23
F16: I 2.67; K 3; M 3.09; N 3.58; H 4.05; R 2.21; Q 4.78; L 3.79; D 4.44; A 3.85; V 3; S 4.35; T 3.91; W 2.1; C 4.41; G 3.84; P 3.9; Y 2.99
R18: G 4.12; M 2.14; A 3.49; L 2.24; N 3.06; K 3.09; H 3.96; D 4.01; Y 1.97; F 1.99; T 3.09; Q 2.77; E 4.21; P 3.01; W 1.79; V 2.02; I 2.27; C 1.77; S 3.54
